{
  "source": "paper PMC2791442",
  "about": "“Three Dimensional Structure of the MqsR:MqsA Complex: A Novel TA Pair Comprised of a Toxin Homologous to RelE and an Antitoxin with Unique Properties” (PLoS Pathogens, 2009)",
  "binders": {"B1": {"name": "MqsA N-terminal domain (MqsA-N), untagged, co-expressed with MqsR (domain or fragment, E. coli, UniProt Q46864 1-76, looked up)", "chain": "MKCPVCHQGEMVSGIKDIPYTFRGRKTVLKGIHGLYCVHCEESIMNKEESDAFMAQVKAFRASVNAETVAPEFIVK", "notes": "MqsA (YgiT, b3021) antitoxin of Escherichia coli, N-terminal domain, residues 1-76; Untagged pCA21a vector; source: E. coli BL21 (DE3), co-expressed with MqsR, purified (his6-tag of MqsR, thrombin cleavage, subtraction his6-tag, SEC)"}, "B2": {"name": "Full-length MqsA (MqsA-F), untagged, co-expressed with MqsR (natural protein, E. coli, UniProt Q46864 1-131, looked up)", "chain": "MKCPVCHQGEMVSGIKDIPYTFRGRKTVLKGIHGLYCVHCEESIMNKEESDAFMAQVKAFRASVNAETVAPEFIVKVRKKLSLTQKEASEIFGGGVNAFSRYEKGNAQPHPSTIKLLRVLDKHPELLNEIR", "notes": "MqsA (YgiT, b3021) antitoxin of Escherichia coli, residues 1-131; Two copies stand in the MqsR:MqsA2:MqsR complex; also called YgiT; B3021; source: co-expressed with his-tagged MqsR, co-purified, SEC"}, "B3": {"name": "Full-length MqsA (MqsA-F), his6-tag cleaved (natural protein, E. coli, UniProt Q46864 1-131, looked up)", "chain": "B2 chain", "modifications": "Gln108 methylated at N5", "notes": "MqsA (YgiT, b3021) antitoxin of Escherichia coli, residues 1-131; Modified pET28a with a TEV site; also called YgiT; B3021; source: E. coli One Shot BL21 (DE3), purified (his6-tag, TEV cleavage, subtraction his6-tag, SEC); not shown: His6, N-terminal, cleaved"}},
  "key": {"[1]": {"target": "T1, MqsR, his6-tag cleaved, co-expressed with MqsA-N (E. coli, UniProt Q46865 1-98)", "T1 construct": "MqsR (YgiU, b3022) toxin of Escherichia coli, 98 residues; 1-97 seen in the first complex of the crystal; also called YgiU; B3022; not shown: His6, N-terminal, cleaved", "T1 sequence (looked up)": "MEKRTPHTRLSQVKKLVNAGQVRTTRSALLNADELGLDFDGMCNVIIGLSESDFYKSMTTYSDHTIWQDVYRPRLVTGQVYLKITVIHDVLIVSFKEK", "experiment": "SEC + other: dynamic light scattering; co-expressed and co-purified complex on a size exclusion column (Superdex 75 26/60 for MqsR:MqsA-F); oligomeric state confirmed by dynamic light scattering", "details": "both partners purified"}, "[2]": {"target": "the molecule itself", "experiment": "SEC + other: dynamic light scattering; co-expressed and co-purified complex on a size exclusion column (Superdex 75 26/60 for MqsR:MqsA-F); oligomeric state confirmed by dynamic light scattering"}, "[3]": {"target": "T2, MqsR (his-tagged), co-expressed with full-length MqsA (E. coli, UniProt Q46865 1-98)", "T2 construct": "MqsR (YgiU, b3022) toxin of Escherichia coli, 98 residues; also called YgiU; B3022; not shown: His6, N-terminal, kept", "T2 sequence (looked up)": "T1 sequence (looked up)", "experiment": "SEC + other: dynamic light scattering; co-expressed and co-purified complex on a size exclusion column (Superdex 75 26/60 for MqsR:MqsA-F); oligomeric state confirmed by dynamic light scattering", "details": "both partners purified"}, "[4]": {"target": "the molecule itself", "experiment": "crystal structure; MqsA-F, 2.15 Å, molecular replacement; sitting drop at 4°C, 75 mM Bis-Tris pH 5.5, 150 mM MgCl2, 19% PEG3350; two molecules in the asymmetric unit"}},
  "data": [
    {"binder": "B1", "values": [
      {"measurement": "stoichiometry N", "setting": "[1]", "value": "1 MqsA-N per MqsR (1:1 heterodimer)"}
    ]},
    {"binder": "B2", "values": [
      {"measurement": "binding result", "setting": "[2]", "value": "binds"},
      {"measurement": "stoichiometry N", "setting": "[3]", "value": "1 MqsA-F per MqsR (2:2 complex)"}
    ]},
    {"binder": "B3", "values": [
      {"measurement": "binding result", "setting": "[4]", "value": "binds"}
    ]}
  ]
}
